# Laboratory results from publication PMC2735845 (Journal of molecular biology, 2009).
# Experiments:
# [1] = biological target: T1, E. coli single-stranded DNA-binding protein (SSB), wild type (E. coli, UniProt P0AGE0 1-178); test: cell-based or functional assay
# [2] = biological target: T1, E. coli single-stranded DNA-binding …; test: ammonium sulfate co-precipitation
Binder,SSB binding in solution relative to wild type [2],other results
"E. coli RecQ (wild type, full-length, hexahistidine-tagged) (enzyme) not shown",,Fold stimulation of RecQ helicase activity by SSB [1]: 9.7 fold
E. coli RecQ R448A (enzyme) not shown,,co-precipitation with SSB relative to wild-type RecQ [2]: ~80%
E. coli RecQ S421A (enzyme) not shown,~40%,
E. coli RecQ Q428A (enzyme) not shown,~3%,
